Test results taken from article PMC6168280 (The Journal of Cell Biology, 2018).

B1: S. cerevisiae Vps1 G436D (natural protein)
chain: MDEHLISTINKLQDALAPLGGGSQSPIDLPQITVVGSQSSGKSSVLENIVGRDFLPRGTGIVTRRPLVLQLINRRPKKSEHAKVNQTANELIDLNINDDDKKKDESGKHQNEGQSEDNKEEWGEFLHLPGKKFYNFDEIRKEIVKETDKVTGANSGISSVPINLRIYSPHVLTLTLVDLPGLTKVPVGDQPPDIERQIKDMLLKYISKPNAIILSVNAANTDLANSDGLKLAREVDPEGTRTIGVLTKVDLMDQGTDVIDILAGRVIPLRYGYIPVINRGQKDIEHKKTIREALENERKFFENHPSYSSKAHYCGTPYLAKKLNSILLHHIRQTLPEIKAKIEATLKKYQNELINLGPETMDSASSVVLSMITDFSNEYAGILDGEAKELSSQELSGGARISYVFHETFKNGVDSLDPFDQIKDSDIRTIMYNSSDSAPSLFVGTEAFEVLVKQQIRRFEEPSLRLVTLVFDELVRMLKQIISQPKYSRYPALREAISNQFIQFLKDATIPTNEFVVDIIKAEQTYINTAHPDLLKGSQAMVMVEEKLHPRQVAVDPKTGKPLPTQPSSSKAPVMEEKSGFFGGFFSTKNKKKLAALESPPPVLKATGQMTERETMETEVIKLLISSYFSIVKRTIADIIPKALMLKLIVKSKTDIQKVLLEKLYGKQDIEELTKENDITIQRRKECKKMVEILRNASQIVSSV

Key:
[1] = target: C. thermophilum Vps1 GG (minimal GTPase-BSE fusion) (C. thermophilum); assay: SEC-MALS
[2] = target: the molecule itself; assay: SEC-MALS

| Molecule | stoichiometry N [1] | stoichiometry N [2] |
| --- | --- | --- |
| C. thermophilum Vps1 GG (minimal GTPase-BSE fusion) (domain or fragment) | 2 | – |
| B1 | – | 2 |
